One substance from patent publication US20180030546 can be followed below.

This data set has as its target RAP1 (RAP1-GTPase) (UniProt P62834).

RAP1 (RAP1-GTPase), sequence (P62834 1-181): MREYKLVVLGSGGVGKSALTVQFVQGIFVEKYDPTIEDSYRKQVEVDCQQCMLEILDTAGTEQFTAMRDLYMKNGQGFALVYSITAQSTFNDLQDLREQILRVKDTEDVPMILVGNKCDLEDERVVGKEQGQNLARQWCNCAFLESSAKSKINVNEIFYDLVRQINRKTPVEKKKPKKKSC

As for “Rap1GAP (RAP1 GTPase Activating Protein)”, the “RAP1 activity (active GTP-bound RAP1 pull-down, immunoblot with RAP1 antibody)” value is recorded as “Enforced Rap1GAP expression in human GICs inhibited RAP1 activity”.
